Measured values taken from patent publication CN114437205A (DOMA MEDICINE TECH SUZHOU LIMITED COMPANY, dated 2022).

Molecular target: SARS-CoV-2-S2 ECD-his (Acro, S2N-C52H5) (SARS-CoV-2, UniProt P0DTC2 686-1213)
Test: ELISA

B1: 抗体CT150 (antibody, V domains shown)
VH: QEQLVESGGGVVQPGRSLRLSCAASGFTFSSYAMHWVRQAPGEGLEWVALISYDGDNKYYADSVKGRFTISRDNSKTTLFLQMNSLRAEDTAVYYCARDRGSYFYGVDVWGQGATVTVSS
VL: DIQLTQSPSFLSASVGDRVTITCRASQDINSYLAWYQQKPGKAPKLLIYAASTLQSGVPSRFSGSGSGTEFTLTISSLQPEDFATYYCQQLNSYPIFTFGPGTKVDIK
For B1, the EC50 was 8.18 ng/mL.
